Data on two molecules can be found in patent US20160355591A1 (published 2016).

The target of experiment [1] is T1, HLA-DR (human leukocyte antigen-DR) on human lymphoma and leukemia cells and human lymphocytes (human, UniProt P01903 26-254; P01911 30-266).
T1 construct: whole, on cells; Natural antigen on Raji, Daudi, Ramos, Namalwa and other cell lines; also called cell surface antigen (Ag) recognized by L243
As to the kind of experiment: direct cell surface saturation binding of 125I-labeled antibody to Daudi cells, 4 C, Scatchard plot; apparent dissociation constant. As for the experimental part:
The cell-associated radioactivity was counted, specific binding of radiolabeled antibody to the cell surface antigen calculated, and Scatchard plot analysis was then applied to determine the maximum number of binding sites per cell and the apparent antigen-binding affinity constant.
To measure specific cell surface antigen binding, two sets of cells were prepared and used in the binding assay to estimate the non-specific and total binding of radioactivities, respectively. The cells for non-specific binding were pre-incubated with excess amount of unlabled Ab to block all surface antigen sites prior to adding the radiolabeled antibody, while those for total binding were pre-incubated in PBS. […] The cell-associated radioactivity was counted. The specific cell surface binding of the radiolabeled antibody at a given concentration of radiolabeled antibody was calculated as: the counts of total binding minus the counts of non-specific binding.

Experiment [2] concerns the target T1, HLA-DR (human leukocyte antigen-DR) on …. As to the kind of experiment: competition cell-binding assay, unlabeled antibody against 125I-labeled L243 antibody on human lymphoma cells (FIG. 6: Raji). As for the experimental part:
(§1) Unbound Abs were removed by washing the cells in PBS. The radioactivity associated with cells was determined after washing.

Experiment [3] shares this target. As to the kind of experiment: competition cell-binding assay on human lymphoma cells; reference mL243. As for the experimental part:
as §1

B1: mL243 (murine L243 anti-HLA-DR monoclonal antibody, IgG2a, ATCC HB55) (antibody, V domains shown)
VH: QIQLVQSGPELKKPGETVKISCKASGFTFTNYGMNWVKQAPGKGLKWMGWINTYTREPTYADDFKGRFAFSLETSASTAYLQINNLKNEDTAKYFCARDITAVVPTGFDYWGQGTTLTVSS
VL: DIQMTQSPASLSVSVGETVTITCRASENIYSNLAWYRQKQGKSPQLLVFAASNLADGVPSRFSGSGSGTQYSLKINSLQSEDFGDYYCQHFWTTPWAFGGGTNLEIKR
notes: Murine IgG2a from hybridoma ATCC HB55; also called mL234; L234
For the molecule B1, the Kd in experiment [1] is 14 nM. Also, in experiment [2], the EC50 – broadly, the concentration giving half of the maximal effect – is about 16.5 nM.

B2: hL243γ4P (IMMU-114; humanized L243, IgG4/K isotype with Ser241Pro hinge mutation) (antibody, V domains shown)
VH: QVQLQQSGSELKKPGASVKVSCKASGFTFTNYGMNWVKQAPGQGLKWMGWINTYTREPTYADDFKGRFAFSLDTSVSTAYLQISSLKADDTAVYFCARDITAVVPTGFDYWGQGSLVTVSS
VL: DIQLTQSPSSLSASVGDRVTITCRASENIYSNLAWYRQKPGKAPKLLVFAASNLADGVPSRFSGSGSGTDYTFTISSLQPEDIATYYCQHFWTTPWAFGGGTKLQIKR
notes: Same V regions as hL243; also called hL243g4P; hL243gamma4P
With B2, the Kd in experiment [1] amounted to 2.6 nM. Also, the “fold stronger binding avidity than mL243” value in experiment [3] was about 2 fold. This molecule also registered an EC50 in experiment [2] of about 7 nM.
